{"source": "paper PMC12445344", "about": "“Influence of Calcium Ions on the Membrane Binding of S100B Protein” (Langmuir, 2025)", "target": "the molecule itself", "assay": "native gel or EMSA; Coomassie-stained 16% native gel; dimeric S100B sample", "data": [{"protein": "S100B protein (natural protein, human, S100B, Homo sapiens, UniProt P04271; Gene carried in the pETDuet-1 vector; The protein is a homodimer as purified; the monomer was obtained by extensive dialysis against deionized water; also called dimeric S100B; monomeric S100B; source: E. coli BL21-CodonPlus (DE3)-RIL, purified (ammonium sulfate, HiTrap Q XL anion exchange)) SELEKAMVALIDVFHQYSGREGDKHKLKKSELKELINNELSHFLEEIKEQEVVDKVMETLDNDGDGECDFQEFMAFVAMVTTACHEFFEHE", "values": [{"measurement": "binding result", "value": "binds"}]}]}
